In paper PMC8130932 (2021):

B1: FI 3A (antibody, V domains shown)
VH: EVQLLESGGGLIQPGGSLRLSCAASGFTVSSNYMSWVRQAPGKGLEWVSVIYSGGSTYYADSVKGRFTISRDNSKNTLYLQMNSLRAEDTAVYYCARDHVRPGMNIWGQGTMVTVSS
VL: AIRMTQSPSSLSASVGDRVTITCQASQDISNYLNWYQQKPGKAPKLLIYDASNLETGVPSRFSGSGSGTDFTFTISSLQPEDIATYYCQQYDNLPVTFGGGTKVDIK
B2: FI 1C (antibody, V domains shown)
VH: EVQLVESGGGLVKPGGSLRLSCAASGFTFSDYYMSWIRQAPGKGLEWVSYISSSGSTIYYADSVKGRFTISRDNAKNSLYLQMNSLRAEDTAVYYCARRSNRFLIAFDIWGQGTMVTVSS
VL: QSALTQPASVSGSPGQTITISCTGTSSDVGGYNYVSWYQQHPGKAPKLMIYEVSNRPSGVSNRFSGSKSGNTASLTISGLQAEDEADYYCSSYTSSSTLVVFGGGTKLTVP
B3: EY 6A (antibody, V domains shown)
VH: EVQLVESGGGVVQPGRSLRLSCAASAFTFSSYDMHWVRQAPGKGLEWVAVISYDGSNKYYADSVKGRFTISRDNSKNTLYLQMNSLRAEDTAVYYCAKDGGKLWVYYFDYWGQGTLVTVSS
VL: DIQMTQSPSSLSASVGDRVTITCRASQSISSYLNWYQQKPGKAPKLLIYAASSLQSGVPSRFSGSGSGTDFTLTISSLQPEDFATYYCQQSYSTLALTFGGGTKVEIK
B4: FD 5D (antibody, V domains shown)
VH: EVQLVESGGGLVQPGGSLRLSCAASGFTFSSYSMNWVRQAPGKGLEWVSYISSSSSTIYYADPVKGRFTISRDNAKNSLYLQMNSLRAEDTAVYYCASPGGITAAGTSVLFGYYGMDVWGQGTMVTVSS
VL: not shown
B5: FD 11A (antibody, V domains shown)
VH: EVQLVESGGGVVQPGRSLRLSCAASGFTFSSYGMHWVRQAPGKGLEWVAVIWYDGSNKYYADSVKGRFTISRDNSKNTLYLQMNSLRAEDTAVYYCAKGPDILTGYYNYYYYGMDVWGQGTMVTVSS
VL: QSVLTQPPSVSGAPGQRVTISCTGSSSNIGAGYDVHWYQQLPGTAPKLLIYGNSNRPSGVPDRFSGSKSGTSASLAITGLQAEDEADYYCQSYDSSLSGFYVVFGGGTKLTVL

Biological target: RBD-6H (340-538; NITN.GPKK), biotinylated (SARS-CoV-2)
Test: not given

Row | Binder | IC50 [nM]
1 | B1 | 8
2 | B2 | 109
3 | B3 | 189
4 | B4 | 34
5 | B5 | 164

Biological target: RBD-VLP (Spycatcher-mi3 VLP-particles conjugated with Spytagged-RBD recombinant protein) (SARS-CoV-2)
Test: ELISA

Row | Binder | IC50 [nM]
6 | B1 | 3
7 | B2 | 3
